Test results: IntAct's records for PubMed 21666598

B1: Shugoshin 2 (Homo sapiens), Q562F6 (parent)
chain: MECPVMETGSLFTSGIKRHLKDKRISKTTKLNVSLASKIKTKILNNSSIFKISLKHNNRALAQALSREKENSRRITTEKMLLQKEVEKLNFENTFLRLKLNNLNKKLIDIEALMNNNLITAIEMSSLSEFHQSSFLLSASKKKRISKQCKLMRLPFARVPLTSNDDEDEDKEKMQCDNNIKSKTLPDIPSSGSTTQPLSTQDNSEVLFLKENNQNVYGLDDSEHISSIVDVPPRESHSHSDQSSKTSLMSEMRNAQSIGRRWEKPSPSNVTERKKRGSSWESNNLSADTPCATVLDKQHISSPELNCNNEINGHTNETNTEMQRNKQDLPGLSSESAREPNAECMNQIEDNDDFQLQKTVYDADMDLTASEVSKIVTVSTGIKKKSNKKTNEHGMKTFRKVKDSSSEKKRERSKRQFKNSSDVDIGEKIENRTERSDVLDGKRGAEDPGFIFNNEQLAQMNEQLAQVNELKKMTLQTGFEQGDRENVLCNKKEKRITNEQEETYSLSQSSGKFHQESKFDKGQNSLTCNKSKASRQTFVIHKLEKDNLLPNQKDKVTIYENLDVTNEFHTANLSTKDNGNLCDYGTHNILDLKKYVTDIQPSEQNESNINKLRKKVNRKTEIISGMNHMYEDNDKDVVHGLKKGNFFFKTQEDKEPISENIEVSKELQIPALSTRDNENQCDYRTQNVLGLQKQITNMYPVQQNESKVNKKLRQKVNRKTEIISEVNHLDNDKSIEYTVKSHSLFLTQKDKEIIPGNLEDPSEFETPALSTKDSGNLYDSEIQNVLGVKHGHDMQPACQNDSKIGKKPRLNVCQKSEIIPETNQIYENDNKGVHDLEKDNFFSLTPKDKETISENLQVTNEFQTVDLLIKDNGNLCDYDTQNILELKKYVTDRKSAEQNESKINKLRNKVNWKTEIISEMNQIYEDNDKDAHVQESYTKDLDFKVNKSKQKLECQDIINKHYMEVNSNEKESCDQILDSYKVVKKRKKESSCKAKNILTKAKNKLASQLTESSQTSISLESDLKHITSEADSDPGNPVELCKTQKQSTTTLNKKDLPFVEEIKEGECQVKKVNKMTSKSKKRKTSIDPSPESHEVMERILDSVQGKSTVSEQADKENNLENEKMVKNKPDFYTKAFRSLSEIHSPNIQDSSFDSVREGLVPLSVSSGKNVIIKENFALECSPAFQVSDDEHEKMNKMKFKVNRRTQKSGIGDRPLQDLSNTSFVSNNTAESENKSEDLSSERTSRRRRCTPFYFKEPSLRDKMRR

Variants of: B1
Details: with pp1a_human PPP1CA

Variant	effect of a mutation on the interaction
N58I	disrupting interaction

Variants of: B1
Details: with md2l1_human MAD2L1, Q13257
Sequence of md2l1_human MAD2L1, Q13257 (Q13257 whole entry): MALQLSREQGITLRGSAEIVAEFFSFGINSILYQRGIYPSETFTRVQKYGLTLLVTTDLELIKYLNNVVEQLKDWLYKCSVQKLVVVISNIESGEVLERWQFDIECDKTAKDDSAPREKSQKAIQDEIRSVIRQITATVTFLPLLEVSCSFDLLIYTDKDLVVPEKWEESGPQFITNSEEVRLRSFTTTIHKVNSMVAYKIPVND

Variant	effect of a mutation on the interaction
R153A	disrupting interaction
